These results are taken from paper PMC5797217, “UFD-2 is an adaptor-assisted E3 ligase targeting unfolded proteins” (Nature Communications, 2018).

In series [1] the target is T1, UNC-45 full-length, His6-tagged (C. elegans, UniProt G5EG62 1-961).
T1 construct: UNC-45, C. elegans, full-length (961 residues by the printed limits of the deletion constructs); also called UNC-45-His6; wild-type, full-length protein; source: E. coli BL21-DE3-RIL, purified (NiNTA, SEC); not shown: His6, C-terminal, kept
T1 sequence (looked up): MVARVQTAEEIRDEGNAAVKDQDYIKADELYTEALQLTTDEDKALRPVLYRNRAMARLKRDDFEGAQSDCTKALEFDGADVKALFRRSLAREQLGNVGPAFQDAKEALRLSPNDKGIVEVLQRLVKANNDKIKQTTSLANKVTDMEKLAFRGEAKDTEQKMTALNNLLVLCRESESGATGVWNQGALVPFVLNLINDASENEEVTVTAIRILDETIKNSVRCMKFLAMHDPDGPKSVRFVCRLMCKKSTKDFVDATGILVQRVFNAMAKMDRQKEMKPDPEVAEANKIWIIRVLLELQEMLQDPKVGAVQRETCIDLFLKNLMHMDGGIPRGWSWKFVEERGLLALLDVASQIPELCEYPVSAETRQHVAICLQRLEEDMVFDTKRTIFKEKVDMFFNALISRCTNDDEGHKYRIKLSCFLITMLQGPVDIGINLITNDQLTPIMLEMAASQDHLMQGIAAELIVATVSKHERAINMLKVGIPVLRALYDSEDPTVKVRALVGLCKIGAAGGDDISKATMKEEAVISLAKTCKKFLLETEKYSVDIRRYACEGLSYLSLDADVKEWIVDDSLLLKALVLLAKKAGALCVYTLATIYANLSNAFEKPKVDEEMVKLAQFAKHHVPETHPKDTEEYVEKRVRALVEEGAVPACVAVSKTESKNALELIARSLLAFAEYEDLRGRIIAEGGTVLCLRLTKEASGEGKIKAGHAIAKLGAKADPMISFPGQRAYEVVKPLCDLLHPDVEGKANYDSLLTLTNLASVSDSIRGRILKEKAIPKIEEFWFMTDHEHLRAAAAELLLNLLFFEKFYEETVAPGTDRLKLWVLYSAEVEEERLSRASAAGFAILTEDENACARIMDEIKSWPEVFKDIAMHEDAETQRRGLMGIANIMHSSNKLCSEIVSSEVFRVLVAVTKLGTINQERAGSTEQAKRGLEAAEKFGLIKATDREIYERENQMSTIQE
Description: pull-down; three proteins: His6-tagged UNC-45 pre-incubated with myosin (MHC-B motor domain) 60 min 27 °C, then with Strep-UFD-2 60 min 30 °C; Strep-Tactin beads; 5 µM protein; 20 mM Tris pH 7.5, 50 mM NaCl; Coomassie. As to conditions: both partners purified.

Series [2] concerns the molecule itself. Description: crystal structure; crystal form UNC-45_(717), space group P6_(1)22, 3.8 Å; molecules form filaments in the crystal lattice.

B1: C. elegans MHC-B motor domain (1-790), His6-tagged (domain or fragment, UniProt P02566 1-790, looked up)
chain: MEHEKDPGWQYLRRTREQVLEDQSKPYDSKKNVWIPDPEEGYLAGEITATKGDQVTIVTARGNEVTLKKELVQEMNPPKFEKTEDMSNLSFLNDASVLHNLRSRYAAMLIYTYSGLFCVVINPYKRLPIYTDSCARMFMGKRKTEMPPHLFAVSDEAYRNMLQDHENQSMLITGESGAGKTENTKKVICYFAAVGASQQEGGAEVDPNKKKVTLEDQIVQTNPVLEAFGNAKTVRNNNSSRFGKFIRIHFNKHGRLASCDIEHYLLEKSRVIRQAPGERCYHIFYQIYSDFRPELKKELLLDLPIKDYWFVAQAELIIDGIDDVEEFQLTDEAFDILNFSAVEKQDCYRLMSAHMHMGNMKFKQRPREEQAEPDGTDEAEKASNMYGIGCEEFLKALTKPRVKVGTEWVSKGQNCEQVNWAVGAMAKGLYSRVFNWLVKKCNLTLDQKGIDRDYFIGVLDIAGFEIFDFNSFEQLWINFVNEKLQQFFNHHMFVLEQEEYAREGIQWVFIDFGLDLQACIELIEKPLGIISMLDEECIVPKATDLTLASKLVDQHLGKHPNFEKPKPPKGKQGEAHFAMRHYAGTVRYNCLNWLEKNKDPLNDTVVSAMKQSKGNDLLVEIWQDYTTQEEAAAKAKEGGGGGKKKGKSGSFMTVSMLYRESLNNLMTMLNKTHPHFIRCIIPNEKKQSGMIDAALVLNQLTCNGVLEGIRICRKGFPNRTLHPDFVQRYAILAAKEAKSDDDKKKCAEAIMSKLVNDGSLSEEMFRIGLTKVFFKAGVLAHLEDIRDEKL
notes: Myosin heavy chain B (MHC-B, UNC-54), C. elegans muscle myosin, motor domain residues 1-790, cloned from cDNA into pACEBac1; also called myosin; MHC-B head domain; source: High Five insect cells, purified (NiNTA, Streptactin wash fractions, SEC) or co-purified with UNC-45; not shown: His6, C-terminal, kept
Regarding B1, in series [1], the binding result is “binds”.

B2: UNC-45 wild type, crystallised (crystal form UNC-45_(717)) (natural protein, C. elegans, UniProt G5EG62 1-961, looked up)
chain: MVARVQTAEEIRDEGNAAVKDQDYIKADELYTEALQLTTDEDKALRPVLYRNRAMARLKRDDFEGAQSDCTKALEFDGADVKALFRRSLAREQLGNVGPAFQDAKEALRLSPNDKGIVEVLQRLVKANNDKIKQTTSLANKVTDMEKLAFRGEAKDTEQKMTALNNLLVLCRESESGATGVWNQGALVPFVLNLINDASENEEVTVTAIRILDETIKNSVRCMKFLAMHDPDGPKSVRFVCRLMCKKSTKDFVDATGILVQRVFNAMAKMDRQKEMKPDPEVAEANKIWIIRVLLELQEMLQDPKVGAVQRETCIDLFLKNLMHMDGGIPRGWSWKFVEERGLLALLDVASQIPELCEYPVSAETRQHVAICLQRLEEDMVFDTKRTIFKEKVDMFFNALISRCTNDDEGHKYRIKLSCFLITMLQGPVDIGINLITNDQLTPIMLEMAASQDHLMQGIAAELIVATVSKHERAINMLKVGIPVLRALYDSEDPTVKVRALVGLCKIGAAGGDDISKATMKEEAVISLAKTCKKFLLETEKYSVDIRRYACEGLSYLSLDADVKEWIVDDSLLLKALVLLAKKAGALCVYTLATIYANLSNAFEKPKVDEEMVKLAQFAKHHVPETHPKDTEEYVEKRVRALVEEGAVPACVAVSKTESKNALELIARSLLAFAEYEDLRGRIIAEGGTVLCLRLTKEASGEGKIKAGHAIAKLGAKADPMISFPGQRAYEVVKPLCDLLHPDVEGKANYDSLLTLTNLASVSDSIRGRILKEKAIPKIEEFWFMTDHEHLRAAAAELLLNLLFFEKFYEETVAPGTDRLKLWVLYSAEVEEERLSRASAAGFAILTEDENACARIMDEIKSWPEVFKDIAMHEDAETQRRGLMGIANIMHSSNKLCSEIVSSEVFRVLVAVTKLGTINQERAGSTEQAKRGLEAAEKFGLIKATDREIYERENQMSTIQE
notes: UNC-45, C. elegans, wild-type full-length protein used for crystallisation
For the molecule B2, the binding result in series [2] is “binds”.
